Patent US20210054016

Tests used:
[1] = molecular target: Vaccinia capping enzyme (VCE) (Vaccinia virus) (UniProt P04298+P04318); conditions: pseudouridine in place of U; 5' triphosphate; 37 C, 100 nM enzyme; larger than U counterpart
[2] = system: T1, H3C2 RNA capping enzyme (Faustovirus D5b) (Faustovirus D5b); conditions: pseudouridine in place of U; 5' triphosphate; 37 C, 100 nM enzyme; larger than U counterpart
T1 sequence: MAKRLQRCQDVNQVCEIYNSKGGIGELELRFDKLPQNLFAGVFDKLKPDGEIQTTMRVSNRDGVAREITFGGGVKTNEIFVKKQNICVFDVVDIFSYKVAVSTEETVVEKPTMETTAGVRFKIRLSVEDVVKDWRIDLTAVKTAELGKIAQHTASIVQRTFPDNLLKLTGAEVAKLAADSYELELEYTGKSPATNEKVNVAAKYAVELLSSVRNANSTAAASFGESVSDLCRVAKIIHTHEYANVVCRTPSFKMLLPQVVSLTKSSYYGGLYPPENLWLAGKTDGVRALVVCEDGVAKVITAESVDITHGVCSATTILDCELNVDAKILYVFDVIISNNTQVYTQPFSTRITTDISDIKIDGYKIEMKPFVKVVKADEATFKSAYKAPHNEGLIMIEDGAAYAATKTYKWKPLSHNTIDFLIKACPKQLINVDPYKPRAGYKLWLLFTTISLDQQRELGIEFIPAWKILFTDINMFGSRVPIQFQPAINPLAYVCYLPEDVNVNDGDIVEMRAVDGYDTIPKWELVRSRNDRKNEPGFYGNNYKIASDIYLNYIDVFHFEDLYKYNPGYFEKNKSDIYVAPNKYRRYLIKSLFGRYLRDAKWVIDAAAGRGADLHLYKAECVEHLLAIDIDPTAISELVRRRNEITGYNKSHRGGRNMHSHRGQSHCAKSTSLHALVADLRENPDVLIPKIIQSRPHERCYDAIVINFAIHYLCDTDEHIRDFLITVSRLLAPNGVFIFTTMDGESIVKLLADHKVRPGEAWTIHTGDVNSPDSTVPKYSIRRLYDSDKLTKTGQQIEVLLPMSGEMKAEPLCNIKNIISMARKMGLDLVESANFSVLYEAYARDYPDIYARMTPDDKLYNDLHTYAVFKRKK

Substance: cluc/A120 transcript with pseudouridine
- activity [1]: 68.4 % capped
- activity [2]: 100 % capped
